According to PMC5910026 (Biochemistry, 2018):

Target: the molecule itself
Assay: AUC

B1: MxiN (recombinant, from pET15b) (natural protein)
chain: MKVCNMQKGTLPVSRHHAYDGVVIKRIEKELCKTIKDRDTESKKKAICVIKDATKKAESLRIDAVCDGYQIGIQTAFEHIIDYICEWKLKQNENRRNIEDYITSLLSENLHDERIISTLLEQWLSSLRNTVTELKVVLPKCNLALRKKLELDLHKYRSDVKIILKYSEGNNYIFCSGNQVVEFSPQDVISGVKIELAEKLTKNDKKYFKELAHKKLRQIAEDLLKENPVND
stoichiometry N: 2
